# T1: human BCMA (B-cell maturation antigen) on cells (human, UniProt Q02223 1-184)
# T1 sequence (looked up): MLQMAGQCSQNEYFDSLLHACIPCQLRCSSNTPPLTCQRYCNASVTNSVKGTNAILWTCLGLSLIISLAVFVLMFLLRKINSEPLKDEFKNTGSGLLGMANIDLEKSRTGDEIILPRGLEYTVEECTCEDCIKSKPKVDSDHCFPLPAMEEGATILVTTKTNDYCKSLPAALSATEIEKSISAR
# T2: BCMA-Fc antigen (R&D Systems) (UniProt Q02223 1-54)
# T2 construct: also called BCMA fc fusion protein (R&D Systems, cat #193-BC-050); recombinant BCMA-Fc; not shown: Fc portion of the bought fusion protein
# T2 sequence (looked up): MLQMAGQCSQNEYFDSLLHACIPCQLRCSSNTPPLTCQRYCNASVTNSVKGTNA
# B1: BCMA-1 CAR (139100) (other)
# chain: QVQLVQSGAEVRKTGASVKVSCKASGYIFDNFGINWVRQAPGQGLEWMGWINPKNNNTNYAQKFQGRVTITADESTNTAYMEVSSLRSEDTAVYYCARGPYYYQSYMDVWGQGTMVTVSSASGGGGSGGRASGGGGSDIVMTQTPLSLPVTPGEPASISCRSSQSLLHSNGYNYLNWYLQKPGQSPQLLIYLGSKRASGVPDRFSGSGSGTDFTLHITRVGAEDVGVYYCMQALQTPYTFGQGTKLEIKTTTPAPRPPTPAPTIASQPLSLRPEACRPAAGGAVHTRGLDFACDIYIWAPLAGTCGVLLLSLVITLYCKRGRKKLLYIFKQPFMRPVQTTQEEDGCSCRFPEEEEGGCELRVKFSRSADAPAYKQGQNQLYNELNLGRREEYDVLDKRRGRDPEMGGKPRRKNPQEGLYNELQKDKMAEAYSEIGMKGERRRGKGHDGLYQGLSTATKDTYDALHMQALPPR
# notes: also called ER95-03VA
# B2: BCMA-13 CAR (139112) (other)
# chain: QVQLVESGGGLVQPGGSLRLSCAVSGFALSNHGMSWVRRAPGKGLEWVSGIVYSGSTYYAASVKGRFTISRDNSRNTLYLQMNSLRPEDTAIYYCSAHGGESDVWGQGTTVTVSSASGGGGSGGRASGGGGSDIRLTQSPSPLSASVGDRVTITCQASEDINKFLNWYHQTPGKAPKLLIYDASTLQTGVPSRFSGSGSGTDFTLTINSLQPEDIGTYYCQQYESLPLTFGGGTKVEIKTTTPAPRPPTPAPTIASQPLSLRPEACRPAAGGAVHTRGLDFACDIYIWAPLAGTCGVLLLSLVITLYCKRGRKKLLYIFKQPFMRPVQTTQEEDGCSCRFPEEEEGGCELRVKFSRSADAPAYKQGQNQLYNELNLGRREEYDVLDKRRGRDPEMGGKPRRKNPQEGLYNELQKDKMAEAYSEIGMKGERRRGKGHDGLYQGLSTATKDTYDALHMQALPPR
# notes: also called B13; KG66-98AB
# B3: BCMA-12 CAR (139111) (other)
# chain: EVQLLESGGGLVQPGGSLRLSCAVSGFALSNHGMSWVRRAPGKGLEWVSGIVYSGSTYYAASVKGRFTISRDNSRNTLYLQMNSLRPEDTAIYYCSAHGGESDVWGQGTTVTVSSASGGGGSGGRASGGGGSDIVMTQTPLSLSVTPGQPASISCKSSQSLLRNDGKTPLYWYLQKAGQPPQLLIYEVSNRFSGVPDRFSGSGSGTDFTLKISRVEAEDVGAYYCMQNIQFPSFGGGTKLEIKTTTPAPRPPTPAPTIASQPLSLRPEACRPAAGGAVHTRGLDFACDIYIWAPLAGTCGVLLLSLVITLYCKRGRKKLLYIFKQPFMRPVQTTQEEDGCSCRFPEEEEGGCELRVKFSRSADAPAYKQGQNQLYNELNLGRREEYDVLDKRRGRDPEMGGKPRRKNPQEGLYNELQKDKMAEAYSEIGMKGERRRGKGHDGLYQGLSTATKDTYDALHMQALPPR
# notes: also called HU13-58ZB
# B4: BCMA-15 CAR (139114) (other)
# chain: EVQLVESGGGLVQPGGSLRLSCAVSGFALSNHGMSWVRRAPGKGLEWVSGIVYSGSTYYAASVKGRFTISRDNSRNTLYLQMNSLRPEDTAIYYCSAHGGESDVWGQGTTVTVSSASGGGGSGGRASGGGGSEIVLTQSPGTLSLSPGERATLSCRASQSIGSSSLAWYQQKPGQAPRLLMYGASSRASGIPDRFSGSGSGTDFTLTISRLEPEDFAVYYCQQYAGSPPFTFGQGTKVEIKTTTPAPRPPTPAPTIASQPLSLRPEACRPAAGGAVHTRGLDFACDIYIWAPLAGTCGVLLLSLVITLYCKRGRKKLLYIFKQPFMRPVQTTQEEDGCSCRFPEEEEGGCELRVKFSRSADAPAYKQGQNQLYNELNLGRREEYDVLDKRRGRDPEMGGKPRRKNPQEGLYNELQKDKMAEAYSEIGMKGERRRGKGHDGLYQGLSTATKDTYDALHMQALPPR
# notes: also called B15; PY43-48LB
# B5: BCMA-14 CAR (139113) (other)
# chain: EVQLVETGGGLVQPGGSLRLSCAVSGFALSNHGMSWVRRAPGKGLEWVSGIVYSGSTYYAASVKGRFTISRDNSRNTLYLQMNSLRPEDTAIYYCSAHGGESDVWGQGTTVTVSSASGGGGSGGRASGGGGSETTLTQSPATLSVSPGERATLSCRASQSVGSNLAWYQQKPGQGPRLLIYGASTRATGIPARFSGSGSGTEFTLTISSLQPEDFAVYYCQQYNDWLPVTFGQGTKVEIKTTTPAPRPPTPAPTIASQPLSLRPEACRPAAGGAVHTRGLDFACDIYIWAPLAGTCGVLLLSLVITLYCKRGRKKLLYIFKQPFMRPVQTTQEEDGCSCRFPEEEEGGCELRVKFSRSADAPAYKQGQNQLYNELNLGRREEYDVLDKRRGRDPEMGGKPRRKNPQEGLYNELQKDKMAEAYSEIGMKGERRRGKGHDGLYQGLSTATKDTYDALHMQALPPR
# notes: also called HJ64-62PB
# B6: BCMA-9 CAR (139108) (other)
# chain: QVQLVESGGGLVKPGGSLRLSCAASGFTFSDYYMSWIRQAPGKGLEWVSYISSSGSTIYYADSVKGRFTISRDNAKNSLYLQMNSLRAEDTAVYYCARESGDGMDVWGQGTTVTVSSASGGGGSGGRASGGGGSDIQMTQSPSSLSASVGDRVTITCRASQSISSYLNWYQQKPGKAPKLLIYAASSLQSGVPSRFSGSGSGTDFTLTISSLQPEDFATYYCQQSYTLAFGQGTKVDIKTTTPAPRPPTPAPTIASQPLSLRPEACRPAAGGAVHTRGLDFACDIYIWAPLAGTCGVLLLSLVITLYCKRGRKKLLYIFKQPFMRPVQTTQEEDGCSCRFPEEEEGGCELRVKFSRSADAPAYKQGQNQLYNELNLGRREEYDVLDKRRGRDPEMGGKPRRKNPQEGLYNELQKDKMAEAYSEIGMKGERRRGKGHDGLYQGLSTATKDTYDALHMQALPPR
# notes: also called OG62-93QB
# Molecular target: T1, human BCMA (B-cell maturation antigen) …
# Experiment: cell-based or functional assay
Binder,"JNL binding assay, ratio to K562; K562-BCMA [ratio]","JNL binding assay, ratio to K562; NCI-H929 [ratio]","JNL binding assay, ratio to K562; RPMI 8226 [ratio]","Proliferation CD3, ratio to no target; K562-BCMA [ratio]","Proliferation CD3, ratio to no target; KMS11-luc [ratio]","Proliferation CD3, ratio to no target; NCI-H929 [ratio]","Proliferation CD3, ratio to no target; RPMI 8226 [ratio]","Proliferation CD4, ratio to no target; K562-BCMA [ratio]","Proliferation CD4, ratio to no target; KMS11-luc [ratio]","Proliferation CD4, ratio to no target; NCI-H929 [ratio]"
B1,4.6,4.55,5.06,1.59,1.38,4.97,2.96,1.57,1.24,5.57
B2,3.74,2.68,3.66,3.47,3.2,3.46,3.48,5.4,3.84,5.05
B3,3.17,2.78,3.36,2.9,2.76,2.98,3.27,3.42,2.94,3.41
B4,2.91,2.79,3.49,3.94,3.51,4.08,3.73,4.87,3.82,4.82
B5,2.81,2.65,3.31,4.12,3.42,3.86,3.93,5.73,3.97,5.07
B6,1.59,1.99,1.54,1.51,1.66,4.63,2.5,1.59,1.49,4.45

# Same assay, conditions: not given
Binder,"Proliferation CD4, ratio to no target; RPMI 8226 [ratio]","Proliferation CD8, ratio to no target; K562-BCMA [ratio]","Proliferation CD8, ratio to no target; KMS11-luc [ratio]","Proliferation CD8, ratio to no target; NCI-H929 [ratio]","Proliferation CD8, ratio to no target; RPMI 8226 [ratio]"
B1,2.43,1.61,1.56,4.14,3.58
B2,4.44,2.34,2.79,2.53,2.86
B3,3.66,1.51,2.11,1.76,2.12
B4,4.24,1.89,2.73,2.42,2.51
B5,4.84,2.65,2.83,2.73,3.03
B6,2.24,1.43,1.83,4.79,2.76

# Molecular target: T2, BCMA-Fc antigen (R&D Systems)
# Experiment: flow cytometry; BCMA-Fc staining of CAR-transduced JNL cells
# Experimental: Jurkat-NFAT-luciferase (JNL) cells transduced with BCMA CAR constructs were evaluated for activation in response to BCMA-expressing target cell lines. Small-scale viral supernatant samples were generated in HEK293T cells for transduction of JNL cells. On Day 3 following transduction, BCMA CAR-transduced JNL cells were incubated with target cells at an effector-to-target (E:T) ratio of 6:1. Target cell lines were: K562-BCMA (engineered to stably express BCMA), K562 (parental line), and BCMA positive multiple myeloma cell lines, NCI-H929 and RPMI 8226. JNL activation was measured using Bright-Glo substrate (Promega) on Day 4. CAR expression on transduced JNL was assessed on Day 7 with BCMA-Fc antigen and Biotin-Protein L reagent (Table 21).
row,Binder,% CAR+ (BCMA-Fc detection) [%]
1,B1,72.1
2,B2,32.7
3,B3,23.4
4,B4,36.9
5,B5,31.8
6,B6,54.7
